According to publication PMC2785850:

Key:
[1] = target: histidine-tagged human thioredoxin (human) (UniProt P10599); assay: pull-down
LexA-Trx1 fusion protein = LexA-Trx1 fusion protein (UniProt P22217); assay: yeast one-hybrid interaction assay
Chain of UniProt P22217 (P22217 2-103): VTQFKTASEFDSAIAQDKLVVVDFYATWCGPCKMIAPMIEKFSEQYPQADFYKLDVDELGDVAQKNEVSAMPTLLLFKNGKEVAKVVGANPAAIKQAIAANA

Chain of UniProt P10599 (P10599 whole entry, the tested form may be a part): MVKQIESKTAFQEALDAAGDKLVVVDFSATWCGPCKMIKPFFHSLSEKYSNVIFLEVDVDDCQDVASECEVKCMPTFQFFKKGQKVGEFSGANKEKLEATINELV

purified baculovirus-expressed human p53 (from UniProt P04637 1-393) (natural protein)
Kd [1]: 0.94 µM

human p53 expressed in yeast from pRS415-p53 (from UniProt P04637 1-393) (natural protein)
β-gal activity (nmol ONP / min 10^7 cells) (LexA-Trx1 fusion protein): 6.56
